# Results published in patent publication US20240345090A1, “EARLY DETECTION OF INNATE IMMUNE DYSFUNCTION AND TREATMENT OF CONDITIONS ASSOCIATED THEREWITH” (UNIVERSITY OF FLORIDA RESEARCH FOUNDATION, INCORPORATED, priority 2021, published 2024).
# B1: TPA: tissue plasminogen activator, positive control for increased monocyte TH expression (Biolegend, 755802) (protein, UniProt P00750 36-562, looked up)
# Tissue-type plasminogen …: SYQVICRDEKTQMIYQQHQSWLRPVLRSNRVEYCWCNSGRAQCHSVPVKSCSEPRCFNGGTCQQALYFSDFVCQCPEGFAGKCCEIDTRATCYEDQGISYRGTWSTAESGAECTNWNSSALAQKPYSGRRPDAIRLGLGNHNYCRNPDRDSKPWCYVFKAGKYSSEFCSTPACSEGNSDCYFGNGSAYRGTHSLTESGASCLPWNSMILIGKVYTAQNPSAQALGLGKHNYCRNPDGDAKPWCHVLKNRRLTWEYCDVPSCSTCGLRQYSQPQFRIKGGLFADIASHPWQAAIFAKHRRSPGERFLCGGILISSCWILSAAHCFQERFPPHHLTVILGRTYRVVPGEEEQKFEVEKYIVHKEFDDDTYDNDIALLQLKSDSSRCAQESSVVRTVCLPPADLQLPDWTECELSGYGKHEALSPFYSERLKEAHVRLYPSSRCTSQHLLNRTVTDNMLCAGDTRSGGPQANLHDACQGDSGGPLVCLNDGRMTLVGIISWGLGCGQKDVPGVYTKVTNYLDWIRDNMRP
# Tested on: CD14+ monocytes
# Assay: Flow cytometry count of TH+ monocytes after in vitro treatment
# Format: cell-based, human
# Conditions: healthy donor monocytes, 2 million per well, 4 hours; TPA 100 ng/ml, TNFα 17 ng/ml, IL6 17 ng/ml, XPro1595 50 ng/ml; n=3 per group
# Experimental: Monocytes were isolated from total PBMCs prepared as described above^51 using negative selection (Biolegend, 480048) per manufacturer's instructions. Total PBMCs were Fc-blocked to reduce nonspecific binding, followed by incubations with biotin-conjugated antibody cocktail containing antibodies against all subsets except CD14 (negative selection), followed by incubation with magnetic-Avidin beads, allowing all subsets other than CD14+ monocytes to be bound to the magnet. Monocyte purity/enrichment was routinely verified to confirm that the final cell population was greater than 95% pure CD14+ cells (FIG. S2). CD14+ monocytes were collected from the supernatant fraction, washed, counted and density adjusted such that 2 million CD14+ monocytes were seeded per well (FIG. 5A) and treated for 4 hours with vehicle, TPA (100 ng/ml, Biolegend, 755802)^7, TNFα (17 ng/mL, Biolegend, 570102)^61, XPro1595 (50 ng/ml), or IL6 (17 ng/mL) in an ultra-low-adherence 6-well plate (Corning, 3471) to prevent adherence. Suspended cells from each treatment group were aspirated and placed in a 15 ml conical tube, with any remaining adherent cells detached by incubation with 700 uL Accumax solution for 3 minutes (Innovative Cell Technologies, AM105) and added to suspended cells. […]
molecule,measurement,value
B1,"number of TH+ monocytes, fold change relative to vehicle",significant increases in TH-expressing monocytes relative to vehicle
